Reference: patent publication US20240376185A1 (SMIVET B V, published 2024)
Where two headings read alike, the source gives them in different places.

Legend:
[1] = target: T1, tetanus neurotoxin (TeNT), authentic tetanus holotoxin (Clostridium tetani, UniProt P04958 2-1315); assay: GT1b-TeNT inhibition ELISA
[2] = target: T1, tetanus neurotoxin (TeNT), authentic …; assay: ELISA: directly coated TeNT, anti-his6 PO
[3] = target: T1, tetanus neurotoxin (TeNT), authentic …; assay: GT1b-TeNT inhibition ELISA; remark: listed apart in the source
[4] = target: T1, tetanus neurotoxin (TeNT), authentic …; assay: bridging ELISA: coated TeNT, SDA, biotinylated TeNT, StrepPO (bivalent binding)
[5] = target: dog IgG (chrompure dog IgG) (dog)
[6] = target: T1, tetanus neurotoxin (TeNT), authentic …; assay: ELISA: directly coated TeNT, anti-his6 PO; remark: listed apart in the source
[7] = target: T1, tetanus neurotoxin (TeNT), authentic …; assay: ELISA: directly coated TeNT, goat anti-llama Ig PO
[8] = target: dog IgG (chrompure dog IgG) (dog); remark: listed apart in the source
[9] = target: T1, tetanus neurotoxin (TeNT), authentic …; assay: bridging ELISA: coated TeNT, SDA, biotinylated TeNT, StrepPO (bivalent binding); remark: listed apart in the source
[10] = target: T1, tetanus neurotoxin (TeNT), authentic …; assay: ELISA: directly coated TeNT, goat anti-llama Ig PO; remark: listed apart in the source
human serum albumin [11] = target: T2, human serum albumin (human, UniProt P02768 25-609); assay: ELISA, coated albumin, E. coli supernatant
T2 construct: mature; also called human Alb

human serum albumin [12] = target: T2, human serum albumin; assay: ELISA, E. coli supernatant
[13] = target: T3, Tetanus neurotoxin (TeNT), authentic tetanus holotoxin (Clostridium tetani, UniProt P04958 2-1315)
[14] = target: T3, Tetanus neurotoxin (TeNT), authentic …; assay: BLI (Octet Red96), biotinylated SDA on SA sensor, TeNT as analyte
Cat albumin = target: T4, Cat albumin (cat, UniProt P49064 25-608); assay: BLI (Octet Red96), SDA on Ni-NTA sensor, albumin as analyte
T4 construct: also called Feline albumin; Feline Alb

Dog albumin = target: T5, Dog albumin (dog, UniProt P49822 25-608); assay: as above
T5 construct: also called Canine albumin; Canine Alb

Horse albumin = target: T6, Horse albumin (horse, UniProt P35747 25-607); assay: as above
T6 construct: also called Equine albumin; Equine Alb

[15] = target: T1, tetanus neurotoxin (TeNT), authentic …; assay: BLI (Octet Red96): biotinylated SDA on SA sensor, TeNT as analyte
[16] = target: T1, tetanus neurotoxin (TeNT), authentic …; assay: BLI (Octet Red96); avidity (bivalent for TeNT); format for this SDA not told

B1: SVG06L (VHH)
VHH: QVQLQESGGALVQPGGSLRLSCAASGFPFSAYDMTWVRQAPGQGLEWVSTIHKSGGITTYADSVKGRFTISRDNAKNTLYLQMNNLESEDTAVYYCAKALRAHNSDYVGRNALGSWGEGTLVTVSS
- Effective SDA Concentration at A450 0.56 [1]: > 1000 ng/mL
- Effective SDA Concentration at A450 0.15 [2]: > 1000 ng/mL
- binding result [2]: no binding (tested: 1000 ng/ml (A450 0.15 not reached))
- minimal absorbance value (GT1b-TeNT inhibition) [3]: 0.8 A450
- Effective SDA Concentration at A450 0.3 [4]: > 1000 ng/mL
- maximal absorbance value [5]: 0.56 A450
- maximal absorbance value [6]: 0.05 A450
- Effective SDA Concentration at A450 0.15 [7]: > 1000 ng/mL
- Effective SDA Concentration at A450 0.2 [8]: 164 ng/mL
- maximal absorbance value [9]: 0.14 A450
- maximal absorbance value [10]: 0.07 A450

B2: SVA04 (VHH, not shown: large carriers)
VHH: QVQLQQSGGGLVQAGGSLRLACAASGRTLSSYVMGWFRQAPGKEREFVAAISWSGGSTYYADSVKGRFTISRDNAKNTVYLQMNSLKPEDTAVYYCAATLRGSNRYYSGRVYDYWGQGTQVTVSS
- absorbance at 450 nm (human serum albumin [11]): 0.085 A450
- binding result (human serum albumin [12]): no binding

B3: SVT15-3FW4M-GS2-SVG13M4-H6 (bispecific antibody)
chain: QVQLQESGGGLVQTGGSLRLSCRASGRAFANYHFGWFRQAPGKDREFVASISWKGGSTYYANFALGRFTSSVDRAESSVYLQMSGLTPEDTATYYCAAHDGGDWNYHTGMDYWGQGTQVTVSSGGGGSGGGSEVQLVESGGGLVQPGGSLRLSCEASGFTFDDYGMSWVRQAPGKGLEWVSSLTPNGGSTYYADSVKGRFTISRDNAKNTLYLQMNSLKPEDTALYYCAKNSYYGAMDYWGQGTQVTVSSHHHHHH
- Kd [13]: 20.9 pM
- koff [13]: 8.15e-06 s⁻¹
- kon [13]: 390000 M⁻¹ s⁻¹

B4: SVT03L (VHH)
VHH: QVQLQQSGGGSVQTGDSLTLSCTASGGSLNSYFVGWFRQSGGKEREFVSVIARTGRSTSYADSVKGRFTISRDNAANTVFLTMNNLRPDDTAIYYCAAVGRPGVLHLTQSYDYWGQGTQVTVSS
- Kd [13]: 1.4 pM
- koff [13]: 6.64e-06 s⁻¹
- kon [13]: 4.62e+06 M⁻¹ s⁻¹

B5: SVT15L (VHH)
VHH: QVQLQESGGGLVQTGGSLRLSCRASGRAFANYHFGWFRQAPGKDREFVASISWKGGSTYYANFALGRFTSSVDRAESSVYLQMSGLTPEDTATYYCAAHDGGDWNYHTGMDYWGKGILVTVSS
- Kd [14]: 772 pM
- koff [14]: 8.57e-05 s⁻¹
- kon [14]: 111000 M⁻¹ s⁻¹

B6: SVA06L (VHH)
VHH: QVQLQESGGRLVQAEDSLRLSCAASGRTFVSYDMGWFRQAPGKEREFVAAINWRGYTTDYVDSVKGRFFISRDIAKSTVYLQMNNLKPEDTAVYYCAARQMSGSSRYSPPGRVGYDFWGQGTQVTVSS
- Kd (Cat albumin): 1200 pM
- koff (Cat albumin): 0.000878 s⁻¹
- kon (Cat albumin): 729000 M⁻¹ s⁻¹
- Kd (Dog albumin): 3160 pM
- koff (Dog albumin): 0.00224 s⁻¹
- kon (Dog albumin): 711000 M⁻¹ s⁻¹
- Kd (Horse albumin): 13500 pM
- koff (Horse albumin): 0.00977 s⁻¹
- kon (Horse albumin): 726000 M⁻¹ s⁻¹

B7: SVT06L (VHH)
VHH: QVQLQESGGGSVQAGGSLRLSCTASELSYDDYTIAWFRRAAGEGRVEDGEGVASITKSYDRAYDNKINYGHSVKGRFTISRDNAKNTVYLQMTDLLPSDTAVYYCALDITPPGGVGASLTEGFLFDYWGQGTQVTVSS
- Effective SDA Concentration at A450 0.56 [1]: 33 ng/mL
- Kd [15]: 535 pM
- koff [15]: 6.27e-05 s⁻¹
- kon [15]: 117000 M⁻¹ s⁻¹
- Effective SDA Concentration at A450 0.15 [2]: 4.9 ng/mL
- minimal absorbance value (GT1b-TeNT inhibition) [3]: 0.27 A450
- Effective SDA Concentration at A450 0.3 [4]: 64 ng/mL
- maximal absorbance value [6]: 1.44 A450
- Effective SDA Concentration at A450 0.15 [7]: 14 ng/mL
- maximal absorbance value [9]: 0.35 A450
- maximal absorbance value [10]: 0.32 A450

B8: SVT06L (VHH)
VHH: B7 VHH
- Kd [14]: 224 pM
- koff [14]: 0.000113 s⁻¹
- kon [14]: 503000 M⁻¹ s⁻¹

B9: SVT06-GS3-SVT02-GS2-SVG06M4-H6 (bispecific antibody)
chain: QVQLQESGGGSVQAGGSLRLSCTASELSYDDYTIAWFRRAAGEGRVEDGEGVASITKSYDRAYDNKINYGHSVKGRFTISRDNAKNTVYLQMTDLLPSDTAVYYCALDITPPGGVGASLTEGFLFDYWGQGTQVTVSSGGGGSGGGGSGGGGSQVQLQQSGGGSVQAGGSLRLSCVGPQRTFSTYGMGWFRQAPGKEREFVAGINYKGDTTYYADSVKGRFTISRDNAKNTLYLQMDSLKPEDRAVYQCARKGGLGGDYRDAGQYRYWGQGTQVTVSSGGGGSGGGSEVQLVESGGALVQPGGSLRLSCAASGFPFSAYDMTWVRQAPGQGLEWVSTIHKSGGITTYADSVKGRFTISRDNAKNTLYLQMNNLESEDTAVYYCAKALRAHNSDYVGRNALGSWGQGTQVTVSSHHHHHH
- Kd [16]: 130 pM
- koff [16]: 4.27e-05 s⁻¹
- kon [16]: 329000 M⁻¹ s⁻¹

B10: SVT16-L123Q-GS2-SVG13M4-H6 (bispecific antibody)
chain: QVQLQESGGGSVQAGDSLRLSCAASGRTISNYAMGWFRQAPGKQREFVAAISRSDNTYYTDSVKGRFTISRDNAKNTLYLQMNSLKPEETAVYYCAADPNLMYESKWKYRALEAWGQGTQVTVSSGGGGSGGGSEVQLVESGGGLVQPGGSLRLSCEASGFTFDDYGMSWVRQAPGKGLEWVSSLTPNGGSTYYADSVKGRFTISRDNAKNTLYLQMNSLKPEDTALYYCAKNSYYGAMDYWGQGTQVTVSSHHHHHH
- maximal absorbance value [5]: 0.69 A450
- Effective SDA Concentration at A450 0.2 [8]: 127 ng/mL

B11: SVT06-SVT16-L123Q-GS2-SVG13M4-H6 (bispecific antibody)
chain: QVQLQESGGGSVQAGGSLRLSCTASELSYDDYTIAWFRRAAGEGRVEDGEGVASITKSYDRAYDNKINYGHSVKGRFTISRDNAKNTVYLQMTDLLPSDTAVYYCALDITPPGGVGASLTEGFLFDYWGQGTQVTVSSQVQLQESGGGSVQAGDSLRLSCAASGRTISNYAMGWFRQAPGKQREFVAAISRSDNTYYTDSVKGRFTISRDNAKNTLYLQMNSLKPEETAVYYCAADPNLMYESKWKYRALEAWGQGTQVTVSSGGGGSGGGSEVQLVESGGGLVQPGGSLRLSCEASGFTFDDYGMSWVRQAPGKGLEWVSSLTPNGGSTYYADSVKGRFTISRDNAKNTLYLQMNSLKPEDTALYYCAKNSYYGAMDYWGQGTQVTVSSHHHHHH
notes: also called pRL501
- maximal absorbance value [5]: 0.78 A450
- Effective SDA Concentration at A450 0.2 [8]: 134 ng/mL
